Test results: paper PMC9104804, “Fine-Tuning Modulation of Oxidation-Mediated Posttranslational Control of Bradyrhizobium diazoefficiens FixK2 Transcription Factor”
Where a chain is given by its changes, count along the chain named. Each block holds one molecule with its values, some of them ahead of it.

Experiments:
[1] = target: T1, C183D FixK2 C183D (Bradyrhizobium diazoefficiens 110spc4) (UniProt O69245); assay: EMSA; settings: EMSA: 40 mM Tris-HCl pH 8, 10 mM MgCl2, 0.1 mM EDTA, 0.1 mM DTT, 150 mM KCl, 0.4 mM K3PO4, room temperature, 30 min; SPR: 40 mM Tris-HCl pH 7.0, 150 mM KCl …; scale: fold higher protein concentration than C183S for similar shift
T1 sequence: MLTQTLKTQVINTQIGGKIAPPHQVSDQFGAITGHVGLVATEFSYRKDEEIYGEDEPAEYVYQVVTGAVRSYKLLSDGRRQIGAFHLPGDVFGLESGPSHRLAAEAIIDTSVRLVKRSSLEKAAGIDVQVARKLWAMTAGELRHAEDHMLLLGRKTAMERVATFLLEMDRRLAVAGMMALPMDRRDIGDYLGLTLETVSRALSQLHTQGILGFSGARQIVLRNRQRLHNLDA

[2] = target: T2, C183S FixK2 C183S (Bradyrhizobium diazoefficiens 110spc4) (UniProt O69245); assay: EMSA; settings: EMSA: 40 mM Tris-HCl pH 8, 10 mM MgCl2, 0.1 mM EDTA, 0.1 mM DTT, 150 mM KCl, 0.4 mM K3PO4, room temperature, 30 min; SPR: 40 mM Tris-HCl pH 7.0, 150 mM KCl …
T2 sequence: T1 sequence with D183S

[3] = target: C183D FixK2 protein variant of Bradyrhizobium diazoefficiens (Bradyrhizobium diazoefficiens) (UniProt Q89RK6); assay: SEC; analytical SEC, Superdex 200 10/300 GL, room temperature, 40 mM Tris-HCl pH 7.0, 150 mM KCl, 0.1 mM EDTA; 100 µL samples loaded at 2.5-30 µM (native) or 2.5-40 µM (C183S, C183D); concentrations refer to the dimeric form; monomer-dimer equilibrium
[4] = target: C183S FixK2 protein variant of Bradyrhizobium diazoefficiens (Bradyrhizobium diazoefficiens) (UniProt Q89RK6); assay: as above
[5] = target: FixK2 protein (native, wild type) of Bradyrhizobium diazoefficiens (Bradyrhizobium diazoefficiens) (UniProt Q89RK6); assay: as above
C183S FixK2 = target: T3, C183S FixK2 (Bradyrhizobium diazoefficiens 110spc4, UniProt O69245 1-232, C183S); assay: SPR; sensorgram at 250 nM; nanomolar affinity only cited from earlier study; EMSA: 40 mM Tris-HCl pH 8, 10 mM MgCl2, 0.1 mM EDTA, 0.1 mM DTT, 150 mM KCl, 0.4 mM K3PO4, room temperature, 30 min; SPR: 40 mM Tris-HCl pH 7.0, 150 mM KCl, 0.1 mM EDTA, 0.005% Tween 20, 25 °C; settings: protein: recombinant; tags: untagged after cleavage of C-terminal Mxe GyrA intein-CBD (IMPACT, pTXB1); chain copies: 2; label: biotin; blunt
T3 sequence: T1 sequence with D183S

Molecule: AAGAACACAGCGCCAGAAACCACATTCACCCTCGCGGGGAATTGATTGAAATCAAGATAGGTGGATTTCTGTTAATGTGAGGCTTTCGCG (double strand) [fixNOQP promoter 90-bp PCR fragment]
- binding signal [1]: 32
- binding [2]: binds

Molecule: C183D FixK2 protein variant of Bradyrhizobium diazoefficiens (from UniProt Q89RK6 4-235) (natural protein)
- stoichiometry N [3]: 2

Molecule: fixNOQP promoter 90-bp PCR fragment
- binding signal [1]: 32

B1: fixN_3 FixK2 box duplex (SPR) (dsDNA)
DNA 1: CCACCTATCTTGATTTCAATCAATTCCCCG
DNA 2: CGGGGAATTGATTGAAATCAAGATAGGTGG
modifications: 5'-biotin on reverse strand (S47)
- binding result (C183S FixK2): binds

The remaining lines, values ahead:

- stoichiometry N [4]: 2
Molecule: C183S FixK2 protein variant of Bradyrhizobium diazoefficiens (from UniProt Q89RK6 4-235) (natural protein)

- stoichiometry N [5]: 2
Molecule: FixK2 protein (native, wild type) of Bradyrhizobium diazoefficiens (from UniProt Q89RK6 4-235) (natural protein)
